According to publication PMC5018250, “Structure of the Bacterial Sex F Pilus Reveals an Assembly of a Stoichiometric Protein-Phospholipid Complex” (Cell, 2016):

Target: the molecule itself
Assay: cryo-EM structure; purified F pili in Tris-HCl, 200 mM NaCl, pH 8.0, vitrified; helical reconstruction (IHRSR), two classes with axial rise 12.5 A and 13.2 A, 5.0 A maps

B1: F TraA pilin (natural protein, E. coli (F plasmid; pOX38 in DH5alpha), UniProt P04737 52-121, looked up)
chain: AGSSGQDLMASGNTTVKATFGKDSSVVKWVVLAEVLVGAVMYMMTKNVKFLAGFAIISVFIAVGMAVVGL
notes: TraA pilin of the F pilus encoded by the F plasmid derivative pOX38; N terminus 4 aa longer than that of pED208 TraA and disordered in the maps; Stands in the pilus as a helical polymer; two filament populations (axial rise 12.5 A and 13.2 A); also called F pilin; F pilus subunit; source: produced in vivo from the pOX38-Cm plasmid in E. coli DH5alpha
B1: binds.
